These results are taken from article PMC3695727.

By stoichiometry N is commonly meant a count of units in the complex or per binding partner.

For the experiment, the target named is Orai expressed in cell membranes (Drosophila melanogaster) (UniProt Q9U6B8). In words: cross-linking.

“Orai expressed in cell membranes (from UniProt Q9U6B8 1-351) (natural protein)” came in with a stoichiometry N of 6.
